Earlier results, collected in publication PMC10330121.

Experiments:
[1] = target: VRK1-K4me3 (Homo sapiens) (UniProt Q99986)
[2] = target: histone H3 N-terminal tail (Homo sapiens) (UniProt P68431)
PAF15 (Homo sapiens) = PAF15 (Homo sapiens) (UniProt Q15004)
PAF15 (Homo sapiens), sequence (Q15004 whole entry): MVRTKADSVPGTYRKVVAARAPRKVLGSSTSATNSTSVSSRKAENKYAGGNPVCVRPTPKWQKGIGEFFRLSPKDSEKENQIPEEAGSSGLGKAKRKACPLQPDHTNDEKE

UHRF1 PHD, sequence (Q96T88 307-369): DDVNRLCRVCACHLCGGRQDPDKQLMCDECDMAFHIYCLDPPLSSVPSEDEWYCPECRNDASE
PHF8 PHD-Jumonji, sequence (Q9UPP1 37-483): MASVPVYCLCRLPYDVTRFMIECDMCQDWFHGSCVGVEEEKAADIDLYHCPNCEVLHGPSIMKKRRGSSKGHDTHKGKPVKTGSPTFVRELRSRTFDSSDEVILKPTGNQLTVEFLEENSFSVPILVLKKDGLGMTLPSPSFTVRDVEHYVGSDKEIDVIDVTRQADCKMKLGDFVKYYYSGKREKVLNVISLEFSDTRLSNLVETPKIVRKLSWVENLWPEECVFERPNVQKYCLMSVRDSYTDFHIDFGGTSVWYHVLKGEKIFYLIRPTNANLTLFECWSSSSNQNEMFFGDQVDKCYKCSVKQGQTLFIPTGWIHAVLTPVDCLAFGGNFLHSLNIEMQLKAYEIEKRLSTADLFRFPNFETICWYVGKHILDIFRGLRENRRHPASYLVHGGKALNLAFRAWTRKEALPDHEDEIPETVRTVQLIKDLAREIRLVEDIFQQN
VRK1-K4me3 (Homo sapiens), sequence (Q99986 whole entry): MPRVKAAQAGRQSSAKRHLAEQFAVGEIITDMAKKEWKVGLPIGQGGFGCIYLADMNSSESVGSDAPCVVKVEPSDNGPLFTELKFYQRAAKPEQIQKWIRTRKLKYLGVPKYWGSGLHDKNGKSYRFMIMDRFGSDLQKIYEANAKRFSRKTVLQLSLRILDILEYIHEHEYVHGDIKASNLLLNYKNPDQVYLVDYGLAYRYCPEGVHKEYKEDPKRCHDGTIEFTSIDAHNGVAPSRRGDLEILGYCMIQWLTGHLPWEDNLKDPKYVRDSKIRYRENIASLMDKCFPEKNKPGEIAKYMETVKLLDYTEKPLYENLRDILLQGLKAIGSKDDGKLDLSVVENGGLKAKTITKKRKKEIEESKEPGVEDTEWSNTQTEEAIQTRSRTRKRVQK

Substance	Kd [1]	Kd [2]	Kd (PAF15 (Homo sapiens))
PHF8 PHD-Jumonji (from UniProt Q9UPP1)	0.042 µM		
UHRF1 PHD (from UniProt Q96T88)		2 µM	2 µM
